# Experimental data as given in US20090299044A1 (priority 2006, published 2009).
# “Also recorded” adds a separate entry of the source. Read-outs that look alike come from different tables or passages of the source. Bridge positions count the residues as written; N and C are the ends. Ends that are not written are not given here. Peptide text beside a SMILES is read from it.
# B1: FcLoop-L2-ShK-L2: ShK inserted into the human IgG1 Fc-loop with 2-Gly linkers (protein)
# chain: MDKTHTCPPCPAPELLGGPSVFLFPPKPKDTLMISRTPEVTCVVVDVSHEDPEVKFNWYVDGVEVHNAKTKPREEQYNSTYRVVSVLTVLHQDWLNGKEYKCKVSNKALPAPIEKTISKAKGQPREPQVYTLPPSRDELGGRSCIDTIPKSRCTAFQCKHSMKYRLSFCRKTCGTCGGTKNQVSLTCLVKGFYPSDIAVEWESNGQPENNYKTTPPVLDSDGSFFLYSKLTVDKSRWQQGNVFSCSVMHEALHNHYTQKSLSLSPGK
# modifications: Definition of Artificial Sequence: Synthetic protein
# B2: MGGHHHHHHGGGPSVFLFPPKPKDTLMISRTPEVTCVVVDVSHEDPEVKFNWYVDGVEVHNAKTKPREEQYNSTYRVVSVLTVLHQDWLNGKEYKCKVSNKALPAPIEKTISGGGGSGGGGSGVIINVKCKISRQCLEPCKKAGMRFGKCMNGKCHCTPK (protein)
# chain: MGGHHHHHHGGGPSVFLFPPKPKDTLMISRTPEVTCVVVDVSHEDPEVKFNWYVDGVEVHNAKTKPREEQYNSTYRVVSVLTVLHQDWLNGKEYKCKVSNKALPAPIEKTISGGGGSGGGGSGVIINVKCKISRQCLEPCKKAGMRFGKCMNGKCHCTPK
# B3: PEGylated CH2-OSK1: CH2-OSK1 fusion protein mono-PEGylated with 20 kD methoxy-PEG-aldehyde (conjugate)
# chain: B2 chain
# B4: FcLoop-L2-OsK1-L2: OsK1 inserted into the human IgG1 Fc-loop between Leu139 and Thr140 with 2-Gly linkers (protein)
# chain: MDKTHTCPPCPAPELLGGPSVFLFPPKPKDTLMISRTPEVTCVVVDVSHEDPEVKFNWYVDGVEVHNAKTKPREEQYNSTYRVVSVLTVLHQDWLNGKEYKCKVSNKALPAPIEKTISKAKGQPREPQVYTLPPSRDELGGGVIINVKCKISRQCLEPCKKAGMRFGKCMNGKCHCTPKGGTKNQVSLTCLVKGFYPSDIAVEWESNGQPENNYKTTPPVLDSDGSFFLYSKLTVDKSRWQQGNVFSCSVMHEALHNHYTQKSLSLSPGK
# modifications: Definition of Artificial Sequence: Synthetic protein
# Tests used:
# [1] = test system: IL-2 production, human whole blood; type: cell-based
# human Kv1.1 [2] = target: T1, human Kv1.1 (Homo sapiens, UniProt Q09470); assay: cell-based; parameters: expressed in transfected cells; host or cells: HEK293
# [3] = test system: IFN-g production, human whole blood; type: cell-based
# human Kv1.3 channel [4] = target: T2, human Kv1.3 channel (Homo sapiens, UniProt P22001); assay: cell-based; type: cell-based
# human Kv1.3 (CHO) = target: T3, human Kv1.3 (CHO) (Homo sapiens, UniProt P22001); assay: cell-based
# T3 construct: expressed in transfected cells; host or cells: CHO
# human Kv1.1 (HEK293) = target: T4, human Kv1.1 (HEK293) (Homo sapiens, UniProt Q09470); assay: cell-based
# T4 construct: expressed in transfected cells; host or cells: HEK293
# human Kv1.3 channel [5] = target: T2, human Kv1.3 channel; assay: cell-based or functional assay
# human Kv1.1 [6] = target: T1, human Kv1.1; assay: cell-based or functional assay
# [7] = target: human Kv1.3 voltage-gated potassium channel (human) (UniProt P22001); assay: cell-based or functional assay
# human Kv1.3 voltage-gated potassium channel (human), sequence (P22001 whole entry): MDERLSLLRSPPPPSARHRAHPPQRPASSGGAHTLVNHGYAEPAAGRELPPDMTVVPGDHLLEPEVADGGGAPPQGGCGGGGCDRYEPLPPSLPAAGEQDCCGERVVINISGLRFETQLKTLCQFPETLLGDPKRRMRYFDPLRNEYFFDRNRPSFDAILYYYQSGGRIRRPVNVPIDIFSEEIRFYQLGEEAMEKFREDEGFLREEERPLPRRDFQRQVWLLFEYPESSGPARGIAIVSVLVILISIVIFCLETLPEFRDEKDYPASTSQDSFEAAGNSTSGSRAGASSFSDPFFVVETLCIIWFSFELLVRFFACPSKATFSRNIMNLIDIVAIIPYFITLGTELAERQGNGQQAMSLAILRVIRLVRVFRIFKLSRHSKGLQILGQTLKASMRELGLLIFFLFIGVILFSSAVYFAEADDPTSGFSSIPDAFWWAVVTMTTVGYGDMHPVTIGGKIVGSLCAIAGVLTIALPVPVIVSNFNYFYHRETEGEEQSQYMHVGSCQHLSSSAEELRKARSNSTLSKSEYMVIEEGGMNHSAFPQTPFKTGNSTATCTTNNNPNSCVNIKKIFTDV
# T1 sequence (Q09470 whole entry): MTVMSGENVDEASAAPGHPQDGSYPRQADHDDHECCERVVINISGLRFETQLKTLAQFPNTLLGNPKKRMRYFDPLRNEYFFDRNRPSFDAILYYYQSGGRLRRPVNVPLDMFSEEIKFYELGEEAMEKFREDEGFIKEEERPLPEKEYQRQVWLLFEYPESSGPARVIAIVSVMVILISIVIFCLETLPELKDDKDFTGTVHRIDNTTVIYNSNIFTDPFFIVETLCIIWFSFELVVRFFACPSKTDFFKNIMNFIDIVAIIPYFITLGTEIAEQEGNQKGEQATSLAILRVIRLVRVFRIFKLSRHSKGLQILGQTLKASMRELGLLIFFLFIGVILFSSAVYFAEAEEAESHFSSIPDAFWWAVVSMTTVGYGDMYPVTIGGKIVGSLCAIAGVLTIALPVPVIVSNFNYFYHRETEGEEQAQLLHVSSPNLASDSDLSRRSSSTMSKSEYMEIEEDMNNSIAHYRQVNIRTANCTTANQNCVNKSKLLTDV
# T2 sequence (P22001 whole entry): as the sequence (P22001 whole entry) above
# T4 sequence (Q09470 whole entry): as the sequence (Q09470 whole entry) above
# T3 sequence (P22001 whole entry): as the sequence (P22001 whole entry) above
molecule,measurement,setting,value
"CC[C@H](C)[C@@H]1NC(=O)[C@H](CCCCN)NC(=O)[C@@H](NC(=O)[C@H](CCCCN)NC(=O)[C@@H](NC(=O)[C@H](CC(N)=O)NC(=O)[C@@H](NC(=O)[C@@H](NC(=O)[C@@H](NC(=O)CN)C(C)C)[C@@H](C)CC)[C@@H](C)CC)C(C)C)CSSC[C@@H]2NC(=O)[C@H](CCCCN)NC(=O)CNC(=O)[C@H](Cc3ccccc3)NC(=O)[C@H](CCCNC(=N)N)NC(=O)[C@H](CCSC)NC(=O)CNC(=O)[C@H](C)NC(=O)[C@H](CCCCN)NC(=O)[C@H](CCCCN)NC(=O)[C@@H]3CSSC[C@@H](C(=O)N[C@H](C(=O)N4CCC[C@H]4C(=O)N[C@@H](CCCCN)C(=O)O)[C@@H](C)O)NC(=O)[C@H](Cc4c[nH]cn4)NC(=O)[C@H](CSSC[C@H](NC(=O)[C@H](CCC(N)=O)NC(=O)[C@H](CCCNC(=N)N)NC(=O)[C@H](CO)NC1=O)C(=O)N[C@@H](CC(C)C)C(=O)N[C@@H](CCC(=O)O)C(=O)N1CCC[C@H]1C(=O)N3)NC(=O)[C@H](CCCCN)NC(=O)CNC(=O)[C@H](CC(N)=O)NC(=O)[C@H](C)NC2=O [OSK1[Ala-29]] (H-GVIINVKCKISRQCLEPCKKAGMRFGKCANGKCHCTPK-OH; disulfide 8-28, 14-33, 18-35)",potency relative to cyclosporin A in blocking the cytokine response in human whole blood (in words),[1],several orders of magnitude more potent
same,IC50,human Kv1.1 [2]; IC50 on HEK/Kv1.1,2700 pM
"CC[C@H](C)[C@@H]1NC(=O)[C@H](CCCCN)NC(=O)[C@@H](NC(=O)[C@H](CCCCN)NC(=O)[C@@H](NC(=O)[C@H](CC(N)=O)NC(=O)[C@@H](NC(=O)[C@@H](NC(=O)[C@@H](NC(=O)CN)C(C)C)[C@@H](C)CC)[C@@H](C)CC)C(C)C)CSSC[C@@H]2NC(=O)[C@H](CCCCN)NC(=O)CNC(=O)[C@H](Cc3ccccc3)NC(=O)[C@H](CCCNC(=N)N)NC(=O)[C@H](CCSC)NC(=O)CNC(=O)[C@H](C)NC(=O)[C@H](CCCCN)NC(=O)[C@H](CCCCN)NC(=O)[C@@H]3CSSC[C@@H](C(=O)N[C@H](C(=O)N4CCC[C@H]4C(=O)N[C@@H](CCCCN)C(=O)O)[C@@H](C)O)NC(=O)[C@H](Cc4c[nH]cn4)NC(=O)[C@H](CSSC[C@H](NC(=O)[C@H](CCC(N)=O)NC(=O)[C@H](CCCNC(=N)N)NC(=O)[C@H](CCC(=O)O)NC1=O)C(=O)N[C@@H](CC(C)C)C(=O)N[C@@H](CCC(=O)O)C(=O)N1CCC[C@H]1C(=O)N3)NC(=O)[C@H](CCCCN)NC(=O)CNC(=O)[C@H](CC(N)=O)NC(=O)[C@H](CCSC)NC2=O [S11E] (H-GVIINVKCKIERQCLEPCKKAGMRFGKCMNGKCHCTPK-OH; disulfide 8-28, 14-33, 18-35)",IC50,"[1]; read-out: Analogue Activity (IC50, pM) WB/IL-2",39900 pM
same,IC50,"[3]; read-out: Analogue Activity (IC50, pM) WB/IFNg",16900 pM
"CC[C@H](C)[C@@H]1NC(=O)[C@H](CCCCN)NC(=O)[C@@H](NC(=O)[C@H](CCCCN)NC(=O)[C@@H](NC(=O)[C@H](CC(N)=O)NC(=O)[C@@H](NC(=O)[C@@H](NC(=O)[C@@H](NC(=O)CN)C(C)C)[C@@H](C)CC)[C@@H](C)CC)C(C)C)CSSC[C@@H]2NC(=O)[C@H](CCCCN)NC(=O)CNC(=O)[C@H](Cc3ccccc3)NC(=O)[C@H](CCCNC(=N)N)NC(=O)[C@H](CCSC)NC(=O)CNC(=O)[C@H](C)NC(=O)[C@H](CCCCN)NC(=O)[C@H](CCCCN)NC(=O)[C@@H]3CSSC[C@@H](C(=O)N[C@H](C(=O)N4CCC[C@H]4C(=O)N[C@@H](CCCCN)C(=O)O)[C@@H](C)O)NC(=O)[C@H](Cc4c[nH]cn4)NC(=O)[C@H](CSSC[C@H](NC(=O)[C@H](CCC(N)=O)NC(=O)[C@H](CCCNC(=N)N)NC(=O)[C@H](CCCNC(=N)N)NC1=O)C(=O)N[C@@H](CC(C)C)C(=O)N[C@@H](CCC(=O)O)C(=O)N1CCC[C@H]1C(=O)N3)NC(=O)[C@H](CCCCN)NC(=O)CNC(=O)[C@H](CC(N)=O)NC(=O)[C@H](CCSC)NC2=O [S11R] (H-GVIINVKCKIRRQCLEPCKKAGMRFGKCMNGKCHCTPK-OH; disulfide 8-28, 14-33, 18-35)",IC50,human Kv1.3 channel [4],0.04 nM
same,IC50,human Kv1.3 (CHO),0.0167 nM
same,IC50,human Kv1.1 (HEK293),0.21 nM
same,IC50,"human Kv1.1 [2]; Kv1.1 (IC50, pM)",9130 pM
"CC[C@H](C)[C@@H]1NC(=O)[C@H](CCCCN)NC(=O)[C@@H](NC(=O)[C@H](CCCCN)NC(=O)[C@@H](NC(=O)[C@H](CC(N)=O)NC(=O)[C@@H](NC(=O)[C@@H](NC(=O)[C@@H](NC(=O)CN)C(C)C)[C@@H](C)CC)[C@@H](C)CC)C(C)C)CSSC[C@@H]2NC(=O)[C@H](CCCCN)NC(=O)CNC(=O)[C@H](Cc3ccccc3)NC(=O)[C@H](CCCNC(=N)N)NC(=O)[C@H](CCSC)NC(=O)CNC(=O)[C@H](C)NC(=O)[C@H](CCCCN)NC(=O)[C@H](CCCCN)NC(=O)[C@@H]3CSSC[C@@H](C(=O)N[C@@H](CCC(=O)O)C(=O)N4CCC[C@H]4C(=O)N[C@@H](CCCCN)C(=O)O)NC(=O)[C@H](Cc4c[nH]cn4)NC(=O)[C@H](CSSC[C@H](NC(=O)[C@H](CCC(N)=O)NC(=O)[C@H](CCCNC(=N)N)NC(=O)[C@H](CO)NC1=O)C(=O)N[C@@H](CC(C)C)C(=O)N[C@@H](CCC(=O)O)C(=O)N1CCC[C@H]1C(=O)N3)NC(=O)[C@H](CCCCN)NC(=O)CNC(=O)[C@H](CC(N)=O)NC(=O)[C@H](CCSC)NC2=O [T36E] (H-GVIINVKCKISRQCLEPCKKAGMRFGKCMNGKCHCEPK-OH; disulfide 8-28, 14-33, 18-35)",IC50,human Kv1.3 channel [4],1.92 nM
same,IC50,human Kv1.3 (CHO),0.161 nM
same,IC50,human Kv1.1 (HEK293),> 3.33 nM
same,IC50,"human Kv1.1 [2]; Kv1.1 (IC50, pM)",83900 pM
E. coli-derived Fc-L-OSK1 (Fc fusion),"Kv1.3 IC50 by WCVC (whole cell patch clamp, HEK293/Kv1.3 cells)",human Kv1.3 channel [5],3.2 nM
E. coli-derived Fc-L-ShK[1-35] (Fc fusion),"Kv1.3 IC50 by WCVC (whole cell patch clamp, HEK293/Kv1.3 cells)",human Kv1.3 channel [5],1.4 nM
E. coli-derived Fc-L-ShK[2-35] (Fc fusion),"Kv1.3 IC50 by IWQ (IonWorks planar patch clamp, CHO/Kv1.3 cells)",human Kv1.3 channel [5],2.8 nM
same,"Kv1.3 IC50 by WCVC (whole cell patch clamp, HEK293/Kv1.3 cells)",human Kv1.3 channel [5],1.3 nM
E. coli-derived ShK[2-35]-L-Fc (Fc fusion),"Kv1.3 IC50 by IWQ (IonWorks planar patch clamp, CHO/Kv1.3 cells)",human Kv1.3 channel [5],4.9 nM
E. coli-derived Shk[1-35]-L-Fc (Fc fusion),"Kv1.3 IC50 by IWQ (IonWorks planar patch clamp, CHO/Kv1.3 cells)",human Kv1.3 channel [5],2.4 nM
Fc-L10-OSK1 (CHO-expressed) (Fc fusion),"hKv1.1: IC50 (whole cell patch clamp, block of K+ current)",human Kv1.1 [6],41.6 nM
Fc-L25-ShK[2-35] (CHO-derived) (Fc fusion),"IC50 of current block, whole cell patch clamp on HEK293/Kv1.3 cells",human Kv1.3 channel [5],0.15 nM
"OSK1 analogue E16K, K20D (peptide)","WB/IFNg (IC50, nM), human whole blood",[7],1.32 nM
same,"WB/IL-2 (IC50, nM), human whole blood",[7],1.58 nM
"SEQ ID No: 4989: OSK1 analog without beta strand 1 (des 1-7), Table 42 (CKISRQCLKPCKDAGMRFGKCMNGKCHC-NH2; ends and bridges not checked)","blockade of the whole blood cytokine response (IL-2 and IFNg), in words",[1],retain activity in blocking inflammation
Synthetic OSK1 toxin peptide,"hKv1.1: IC50 (whole cell patch clamp, block of K+ current)",human Kv1.1 [6],0.16 nM
same,"hKv1.3: IC50 (whole cell patch clamp, block of K+ current)",human Kv1.3 channel [5],0.039 nM
B1,"blockade of the whole blood cytokine response (IL-2 and IFNg), in words",[1],potent blockade
B2,"blockade of the whole blood cytokine response (IL-2 and IFNg), in words",[1],active in blocking inflammation; also recorded: modest blockade
same,IC50,[1]; read-out: WB/IL-2 (IC50),38500 pM
same,IC50,[3]; read-out: WB/IFNg (IC50),55200 pM
B3,"blockade of the whole blood cytokine response (IL-2 and IFNg), in words",[1],active in blocking inflammation; also recorded: modest blockade
B4,"blockade of the whole blood cytokine response (IL-2 and IFNg), in words",[1],potent blockade
